This test concerns the target T1, KIF1C-SNAPf-3XFLAG, full-length KIF1C (human, UniProt O43896 1-1103, TMR via the SNAP-tag (in the TIRF assays)).
T1 sequence: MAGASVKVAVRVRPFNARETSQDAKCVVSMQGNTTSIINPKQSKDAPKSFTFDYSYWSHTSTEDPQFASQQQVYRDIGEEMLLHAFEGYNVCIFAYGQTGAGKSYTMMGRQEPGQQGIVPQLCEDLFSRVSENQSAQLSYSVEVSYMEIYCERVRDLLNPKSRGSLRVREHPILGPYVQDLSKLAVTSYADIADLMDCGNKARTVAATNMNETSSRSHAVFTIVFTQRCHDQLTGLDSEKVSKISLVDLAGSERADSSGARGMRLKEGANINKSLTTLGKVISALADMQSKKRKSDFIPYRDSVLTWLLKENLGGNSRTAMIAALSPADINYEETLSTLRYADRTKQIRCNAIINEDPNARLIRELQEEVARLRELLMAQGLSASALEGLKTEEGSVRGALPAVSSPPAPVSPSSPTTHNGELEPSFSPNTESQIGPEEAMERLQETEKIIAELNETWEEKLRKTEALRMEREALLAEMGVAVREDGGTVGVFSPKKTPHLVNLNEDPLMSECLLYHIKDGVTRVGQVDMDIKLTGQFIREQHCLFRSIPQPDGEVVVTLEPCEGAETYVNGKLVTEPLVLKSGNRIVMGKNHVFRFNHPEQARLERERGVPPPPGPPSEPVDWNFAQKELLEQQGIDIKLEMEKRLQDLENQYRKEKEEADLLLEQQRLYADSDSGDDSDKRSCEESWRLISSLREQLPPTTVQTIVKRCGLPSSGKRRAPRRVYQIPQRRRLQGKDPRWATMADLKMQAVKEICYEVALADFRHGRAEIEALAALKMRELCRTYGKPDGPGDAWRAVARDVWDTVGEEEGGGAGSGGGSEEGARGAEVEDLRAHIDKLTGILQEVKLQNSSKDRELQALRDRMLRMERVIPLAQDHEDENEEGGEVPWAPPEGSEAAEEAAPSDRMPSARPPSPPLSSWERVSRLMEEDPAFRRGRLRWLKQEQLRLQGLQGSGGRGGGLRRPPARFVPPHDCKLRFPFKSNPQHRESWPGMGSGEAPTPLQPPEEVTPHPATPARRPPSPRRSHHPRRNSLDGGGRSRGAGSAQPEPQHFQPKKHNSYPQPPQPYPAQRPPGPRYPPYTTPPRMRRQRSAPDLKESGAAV
The test is described as follows: single-molecule three-colour TIRF colocalisation on microtubules.

B1: Halo-HOOK3(1-718)-3XFLAG, full-length HOOK3 (natural protein)
chain: MFSVESLERAELCESLLTWIQTFNVDAPCQTVEDLTNGVVMAQVLQKIDPAYFDENWLNRIKTEVGDNWRLKISNLKKILKGILDYNHEILGQQINDFTLPDVNLIGEHSDAAELGRMLQLILGCAVNCEQKQEYIQAIMMMEESVQHVVMTAIQELMSKESPVSAGNDAYVDLDRQLKKTTEELNEALSAKEEIAQRCHELDMQVAALQEEKSSLLAENQVLMERLNQSDSIEDPNSPAGRRHLQLQTQLEQLQEETFRLEAAKDDYRIRCEELEKEISELRQQNDELTTLADEAQSLKDEIDVLRHSSDKVSKLEGQVESYKKKLEDLGDLRRQVKLLEEKNTMYMQNTVSLEEELRKANAARSQLETYKRQVVELQNRLSEESKKADKLDFEYKRLKEKVDSLQKEKDRLRTERDSLKETIEELRCVQAQEGQLTTQGLMPLGSQESSDSLAAEIVTPEIREKLIRLQHENKMLKLNQEGSDNEKIALLQSLLDDANLRKNELETENRLVNQRLLEVQSQVEELQKSLQDQGSKAEDSVLLKKKLEEHLEKLHEANNELQKKRAIIEDLEPRFNNSSLKIEELQEALRKKEEEMKQMEERYKKYLEKAKSVIRTLDPKQNQGAAPEIQALKNQLQERDRLFHSLEKEYEKTKSQREMEEKYIVSAWYNMGMTLHKKAAEDRLASTGSGQSFLARQRQATSSRRSYPGHVQPATAR
modifications: Alexa-488 via the HaloTag (in the TIRF assays)
Regarding B1, the binding result is given as “binds”.

The record behind these values is paper doi:10.1101/508887 (bioRxiv, 2018).
